Measured values reported in PMC6755086.
Values joined by “and” are separate entries in the source; they are usually repeats but may differ in a detail not shown here. Equal entries are not always repeated.

Target: Burkholderia pseudomallei Class 2 OLD protein, full-length (Bp^FL, residues 1-594) (Burkholderia pseudomallei)
Assay: SEC-MALS

Burkholderia pseudomallei Class 2 OLD protein, full-length (Bp^FL, residues 1-594) (enzyme)
stoichiometry N: 2 and 4
